Experimental data: patent publication US20200048328A1 (Bristol-Myers Squibb, published 2020)
Read-outs that look alike come from different tables or passages of the source.

Legend:
human PCSK9 [1] = target: T1, human PCSK9 (human, UniProt Q8NBP7 31-692); test: Octet Red, 37° C., core
T1 construct: also called hPCSK9; huPCSK9

cynomolgus PCSK9 = target: T2, cynomolgus PCSK9 (cynomolgus, UniProt A0A7N9D9N8 150-747); test: Octet Red, 37° C., core
T2 construct: also called cyno PCSK9

human PCSK9 [2] = target: T1, human PCSK9; test: PCSK9:LDLR FRET, competition
human PCSK9 [3] = target: T1, human PCSK9; test: PCSK9:EGFA FRET 1, competition
human PCSK9 [4] = target: T1, human PCSK9; test: PCSK9:EGFA FRET 2, competition
human serum albumin [5] = target: T3, human serum albumin (human, UniProt P02768 25-609); test: SPR, albumin immobilized, HBS-P pH 7.4
T3 construct: immobilized on chips or coated on plates elsewhere; also called HSA; HuSA

rhesus serum albumin [6] = target: T4, rhesus serum albumin (rhesus, UniProt Q28522 17-600); test: SPR, albumin immobilized, HBS-P pH 7.4
T4 construct: also called RhSA; Rh-SA

mouse serum albumin [7] = target: T5, mouse serum albumin (mouse, UniProt P07724 25-608); test: SPR, albumin immobilized, HBS-P pH 7.4
T5 construct: also called MSA; MuSA

human serum albumin [8] = target: T3, human serum albumin; test: SPR, albumin immobilized, acetate pH 5.5
rhesus serum albumin [9] = target: T4, rhesus serum albumin; test: SPR, albumin immobilized, acetate pH 5.5
mouse serum albumin [10] = target: T5, mouse serum albumin; test: SPR, albumin immobilized, acetate pH 5.5
human serum albumin [11] = target: T3, human serum albumin; test: hFcRn:HSA competition AlphaScreen, pH 5.5
mouse serum albumin [12] = target: T5, mouse serum albumin; test: SPR, albumin immobilized
domain III of HSA = target: T6, domain III of HSA (human, UniProt P02768 405-609, limits assumed); test: SPR on HSA domains
T6 construct: domain: III; also called HuSA domainIII

domain I of HSA = target: T7, domain I of HSA (human, UniProt P02768 25-221, limits assumed); test: SPR on HSA domains
T7 construct: domain: I; also called HSA domain I

human serum albumin [13] = target: T3, human serum albumin; test: SPR, albumin immobilized
rat serum albumin [14] = target: T8, rat serum albumin (rat, UniProt P02770 25-608); test: SPR, albumin immobilized
T8 construct: also called Rat SA; RSA

rhesus serum albumin [15] = target: T4, rhesus serum albumin; test: SPR, albumin immobilized
cynomolgus serum albumin [16] = target: T9, cynomolgus serum albumin (cynomolgus, UniProt A2V9Z4 25-608); test: SPR, albumin immobilized
T9 construct: also called cynoSA; CySA

mouse serum albumin [17] = target: T5, mouse serum albumin; test: SPR, albumin immobilized; remark: listed apart in the source
human serum albumin [18] = target: T3, human serum albumin; test: direct binding ELISA on coated HSA, mono-Adnectin (column HSA EC50 (nM))
human serum albumin [19] = target: T3, human serum albumin; test: SPR, albumin immobilized; remark: listed apart in the source
rhesus serum albumin [20] = target: T4, rhesus serum albumin; test: SPR, albumin immobilized; remark: listed apart in the source
mouse serum albumin [21] = target: T5, mouse serum albumin; test: SPR, albumin immobilized; remark: listed apart in the source
human serum albumin [22] = target: T3, human serum albumin; test: SPR, albumin immobilized, acetate pH 5.5; remark: listed apart in the source
rhesus serum albumin [23] = target: T4, rhesus serum albumin; test: SPR, albumin immobilized, acetate pH 5.5; remark: listed apart in the source
mouse serum albumin [24] = target: T5, mouse serum albumin; test: SPR, albumin immobilized, acetate pH 5.5; remark: listed apart in the source
human PCSK9 [25] = target: T1, human PCSK9; test: BLI (Octet), biotinylated PCSK9 on tips, no HSA
human serum albumin [26] = target: T3, human serum albumin; test: direct binding ELISA, albumin coated
rhesus serum albumin [27] = target: T4, rhesus serum albumin; test: direct binding ELISA, albumin coated
mouse serum albumin [28] = target: T5, mouse serum albumin; test: direct binding ELISA, albumin coated
human serum albumin [29] = target: T3, human serum albumin; test: SPR, albumin immobilized, HBSP pH 7.4
rhesus serum albumin [30] = target: T4, rhesus serum albumin; test: SPR, albumin immobilized, HBSP pH 7.4
mouse serum albumin [31] = target: T5, mouse serum albumin; test: SPR, albumin immobilized, HBSP pH 7.4
human PCSK9 [32] = target: T1, human PCSK9; test: BLI (Octet), biotinylated PCSK9 on tips, tandem in complex with excess HSA
human serum albumin [33] = target: T3, human serum albumin; test: SPR, albumin immobilized, acetate pH 7.4
rhesus serum albumin [34] = target: T4, rhesus serum albumin; test: SPR, albumin immobilized, acetate pH 7.4
mouse serum albumin [35] = target: T5, mouse serum albumin; test: SPR, albumin immobilized, acetate pH 7.4
human serum albumin [36] = target: T3, human serum albumin; test: SPR, albumin immobilized; remark: listed apart in the source
rat serum albumin [37] = target: T8, rat serum albumin; test: SPR, albumin immobilized; remark: listed apart in the source
rhesus serum albumin [38] = target: T4, rhesus serum albumin; test: SPR, albumin immobilized; remark: listed apart in the source
cynomolgus serum albumin [39] = target: T9, cynomolgus serum albumin; test: SPR, albumin immobilized; remark: listed apart in the source
mouse serum albumin [40] = target: T5, mouse serum albumin; test: SPR, albumin immobilized; remark: listed apart in the source

B1: PCSK9 Adnectin 2382_D09 (designed binder)
chain: MGVSDVPRDLEVVAATPTSLLISWDAPAEGYGYYRITYGETGGNSPVQEFTVPVSKGTATISGLKPGVDYTITVYAVEFDFPGAGYYHRPISINYRT
Kd (human PCSK9 [1]): 0.14 nM | Kd (cynomolgus PCSK9): 39 nM | IC50 (human PCSK9 [2]): 2.3 nM | IC50 (human PCSK9 [3]): 19.7 nM | IC50 (human PCSK9 [4]): 10.6 nM

B2: PKE2 Adnectin 2270_C01 (designed binder)
chain: MASTSGVPRDLEVVAATPTSLLISWDAPAVTVRYYRITYGWQVQMYSDWGPLYIYKEFTVPGSKSTATISGLKPGVDYTITVYAVTGSGESPASSKPISINYRTEGDKPSQHHHHHH
notes: 10Fn3 domain with modified CD loop; the entry includes the His6 tail
Kd (human serum albumin [5]): 5.58 nM | koff (human serum albumin [5]): 0.000368 s⁻¹ | kon (human serum albumin [5]): 65900 M⁻¹ s⁻¹ | Kd (rhesus serum albumin [6]): 6.98 nM | koff (rhesus serum albumin [6]): 0.000577 s⁻¹ | kon (rhesus serum albumin [6]): 82700 M⁻¹ s⁻¹ | Kd (mouse serum albumin [7]): 67.7 nM | koff (mouse serum albumin [7]): 0.00909 s⁻¹ | kon (mouse serum albumin [7]): 134000 M⁻¹ s⁻¹ | Kd (human serum albumin [8]): 8.82 nM | koff (human serum albumin [8]): 0.000898 s⁻¹ | kon (human serum albumin [8]): 102000 M⁻¹ s⁻¹ | Kd (rhesus serum albumin [9]): 17.6 nM | koff (rhesus serum albumin [9]): 0.00105 s⁻¹ | kon (rhesus serum albumin [9]): 59600 M⁻¹ s⁻¹ | Kd (mouse serum albumin [10]): ~192 nM | koff (mouse serum albumin [10]): 0.0146 s⁻¹ | kon (mouse serum albumin [10]): 75900 M⁻¹ s⁻¹ | IC50 (human serum albumin [11]): 37 nM | fold weaker affinity than for human or rhesus albumin (mouse serum albumin [12]): ~10 fold | binding result (domain III of HSA): no binding | binding result (domain I of HSA): no binding

B3: PKE2 Adnectin 2630_D02 (designed binder)
chain: MGVSDVPRDLEVVAATPTSLLISWDAPAVTVRYYRITYGREVQKYSDWGPLYIYNEFTVPGSKSTATISGLKPGVDYTITVYAVTGSGESPASSKPISINYRTEIDKPSQHHHHHH
notes: as for B2
Kd (human serum albumin [13]): 1 nM | koff (human serum albumin [13]): 0.000162 s⁻¹ | kon (human serum albumin [13]): 167000 M⁻¹ s⁻¹ | Kd (rat serum albumin [14]): 200 nM | koff (rat serum albumin [14]): 0.0299 s⁻¹ | kon (rat serum albumin [14]): 150000 M⁻¹ s⁻¹ | Kd (rhesus serum albumin [15]): 1.8 nM | koff (rhesus serum albumin [15]): 0.000362 s⁻¹ | kon (rhesus serum albumin [15]): 207000 M⁻¹ s⁻¹ | Kd (cynomolgus serum albumin [16]): 1.6 nM | koff (cynomolgus serum albumin [16]): 0.000335 s⁻¹ | kon (cynomolgus serum albumin [16]): 208000 M⁻¹ s⁻¹ | Kd (mouse serum albumin [17]): 13.6 nM | koff (mouse serum albumin [17]): 0.0092 s⁻¹ | kon (mouse serum albumin [17]): 678000 M⁻¹ s⁻¹ | EC50 (human serum albumin [18]): 9 nM | IC50 (human serum albumin [11]): 28.7 nM | binding result (domain III of HSA): no binding | binding result (domain I of HSA): no binding

B4: PCSK9-PKE2 tandem 4472_F08 (designed binder)
PCSK9 domain: MGVSDVPRDLEVVAATPTSLLISWDAPAEGYGYYRITYGETGGNSPVQEFTVPVSKGTATISGLKPGVDYTITVYAVEFDFPGAGYYHRPISINYRTE
PKE2 domain: GVSDVPRDLEVVAATPTSLLISWDAPAVTVRYYRITYGREVQKYSDLGPLYIYQEFTVPGSKSTATISGLKPGVDYTITVYAVTGSGESPASSKPISINYRTEHHHHHH
modifications: The real molecule is ONE polypeptide: PCSK9 domain, undisclosed linker F, PKE2 domain. It is given here as two chains because the linker letters are unknown.
notes: not shown: The inter-domain linker
IC50 (human PCSK9 [2]): 2.5 nM | Kd (human serum albumin [19]): 67.1 nM | koff (human serum albumin [19]): 0.000324 s⁻¹ | kon (human serum albumin [19]): 4820 M⁻¹ s⁻¹ | Kd (rhesus serum albumin [20]): 68.7 nM | koff (rhesus serum albumin [20]): 0.000367 s⁻¹ | kon (rhesus serum albumin [20]): 5340 M⁻¹ s⁻¹ | Kd (mouse serum albumin [21]): 25.5 nM | koff (mouse serum albumin [21]): 0.000344 s⁻¹ | kon (mouse serum albumin [21]): 13500 M⁻¹ s⁻¹ | IC50 (human PCSK9 [3]): 7.88 nM | Kd (human serum albumin [22]): 43.9 nM | koff (human serum albumin [22]): 0.000489 s⁻¹ | kon (human serum albumin [22]): 11100 M⁻¹ s⁻¹ | Kd (rhesus serum albumin [23]): 110 nM | koff (rhesus serum albumin [23]): 0.000818 s⁻¹ | kon (rhesus serum albumin [23]): 7400 M⁻¹ s⁻¹ | Kd (mouse serum albumin [24]): 137 nM | koff (mouse serum albumin [24]): 0.0015 s⁻¹ | kon (mouse serum albumin [24]): 11000 M⁻¹ s⁻¹ | Kd (human PCSK9 [25]): 0.404 nM | koff (human PCSK9 [25]): 0.000118 s⁻¹ | kon (human PCSK9 [25]): 289000 M⁻¹ s⁻¹ | EC50 (human serum albumin [26]): 55.4 nM | EC50 (rhesus serum albumin [27]): 35.2 nM | EC50 (mouse serum albumin [28]): 7.3 nM | Kd (human serum albumin [29]): 83.8 nM | koff (human serum albumin [29]): 0.000301 s⁻¹ | kon (human serum albumin [29]): 3590 M⁻¹ s⁻¹ | Kd (rhesus serum albumin [30]): 71.7 nM | koff (rhesus serum albumin [30]): 0.000346 s⁻¹ | kon (rhesus serum albumin [30]): 4820 M⁻¹ s⁻¹ | Kd (mouse serum albumin [31]): 26.3 nM | koff (mouse serum albumin [31]): 0.000359 s⁻¹ | kon (mouse serum albumin [31]): 13700 M⁻¹ s⁻¹ | IC50 (human PCSK9 [4]): 5.88 nM | Kd (human PCSK9 [32]): 0.902 nM | koff (human PCSK9 [32]): 0.000148 s⁻¹ | kon (human PCSK9 [32]): 161000 M⁻¹ s⁻¹ | Kd (human serum albumin [33]): 83.9 nM | koff (human serum albumin [33]): 0.000387 s⁻¹ | kon (human serum albumin [33]): 4610 M⁻¹ s⁻¹ | Kd (rhesus serum albumin [34]): 75.4 nM | koff (rhesus serum albumin [34]): 0.000405 s⁻¹ | kon (rhesus serum albumin [34]): 5380 M⁻¹ s⁻¹ | Kd (mouse serum albumin [35]): 35 nM | koff (mouse serum albumin [35]): 0.000407 s⁻¹ | kon (mouse serum albumin [35]): 11600 M⁻¹ s⁻¹

B5: PCSK9-PKE2 tandem Adnectin w/o his tag 5190_E01 (designed binder)
chain: MGVSDVPRDLEVVAATPTSLLISWDAPAEGYGYYRITYGETGGNSPVQEFTVPVSKGTATISGLKPGVDYTITVYAVEFDFPGAGYYHRPISINYRTEPSTPPTPSPSTPPTPSPSGVSDVPRDLEVVAATPTSLLISWDAPAVTVRYYRITYGREVQKYSDLGPLYIYQEFTVPGSKSTATISGLKPGVDYTITVYAVTGSGESPASSKPISINYRTP
notes: also called ATI-1676; 4472_C06 tandem Adnectin without a 6X histidine tail
Kd (human serum albumin [36]): 57.2 nM | koff (human serum albumin [36]): 0.000272 s⁻¹ | kon (human serum albumin [36]): 4790 M⁻¹ s⁻¹ | Kd (rat serum albumin [37]): 200 nM | koff (rat serum albumin [37]): 0.00147 s⁻¹ | kon (rat serum albumin [37]): 7350 M⁻¹ s⁻¹ | Kd (rhesus serum albumin [38]): 53.8 nM | koff (rhesus serum albumin [38]): 0.000351 s⁻¹ | kon (rhesus serum albumin [38]): 6520 M⁻¹ s⁻¹ | Kd (cynomolgus serum albumin [39]): 50.5 nM | koff (cynomolgus serum albumin [39]): 0.000326 s⁻¹ | kon (cynomolgus serum albumin [39]): 6440 M⁻¹ s⁻¹ | Kd (mouse serum albumin [40]): 43.3 nM | koff (mouse serum albumin [40]): 0.000723 s⁻¹ | kon (mouse serum albumin [40]): 16700 M⁻¹ s⁻¹
